Consider 125 sequences from the supplement of paper PMC9112550, “Optimization of the antimicrobial peptide Bac7 by deep mutational scanning” (BMC Biology, 2022).

The test system of the series is Escherichia coli TOP10. Nature of the series: shrunken log2 fold change of peptide-encoding DNA abundance (4.5 h post-induction vs induction); higher = less antimicrobial activity (less host growth inhibition). As to conditions: time post-induction: 4.5 h; library: site-saturation at positions 5, 18, 19, 20.
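Further: peptides expressed intracellularly from a pBAD plasmid library in pooled LB shake-flask culture, induced with 0.3% L-arabinose, DNA abundance read by NGS, three biological replicates, DESeq2 with apeglm shrinkage.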

For RRIRCRPPRLPRPRPRPAGWPRP, the “shrunken log2 fold change” value was 0.719.
As for RRIRGRPPRLPRPRPRPVTYPRP, the “shrunken log2 fold change” value was -0.13.
For RRIRRRPPRLPRPRPRPGDVPRP, the “shrunken log2 fold change” value was determined as 0.249.
The value for RRIRTRPPRLPRPRPRPAFDPRP was 0.161; that for RRIRCRPPRLPRPRPRPEWFPRP was 0.000144; that for RRIRERPPRLPRPRPRPDNRPRP was -0.0217.
In the case of RRIRSRPPRLPRPRPRPQFSPRP, the “shrunken log2 fold change” value is -0.152.
In the case of RRIRRRPPRLPRPRPRPRGNPRP, the “shrunken log2 fold change” value was found to be 0.524.
RRIRSRPPRLPRPRPRPDSMPRP: the “shrunken log2 fold change” value was -0.339.
Under RRIRYRPPRLPRPRPRPREGPRP stands 0.251; under RRIRYRPPRLPRPRPRPWFSPRP, -0.346.
Under RRIRTRPPRLPRPRPRPRNFPRP stands 0.172; under RRIRMRPPRLPRPRPRPNGWPRP, 0.175.
Under RRIRDRPPRLPRPRPRPRVPPRP stands 0.523.
As for RRIRTRPPRLPRPRPRPQRSPRP, the “shrunken log2 fold change” value was found to be 0.309.
Under RRIRGRPPRLPRPRPRPRLEPRP stands 1.16; under RRIRTRPPRLPRPRPRPAYLPRP, -0.0925.
The value for RRIRDRPPRLPRPRPRPDGQPRP was 0.705; that for RRIRARPPRLPRPRPRPVNPPRP was -0.00864.
Under RRIRWRPPRLPRPRPRPGILPRP stands 0.0649; under RRIRQRPPRLPRPRPRPNEYPRP, -1.18; under RRIRARPPRLPRPRPRPDSAPRP, 0.608.
Take RRIRFRPPRLPRPRPRPQLDPRP: the “shrunken log2 fold change” value turned out to be 0.123.
The value for RRIRFRPPRLPRPRPRPNELPRP was -0.0316.
Under RRIRSRPPRLPRPRPRPEWKPRP stands 0.14; under RRIRSRPPRLPRPRPRPMQNPRP, 0.22; under RRIRKRPPRLPRPRPRPYWHPRP, -0.684.
Under RRIRPRPPRLPRPRPRPRHLPRP stands -0.0836; under RRIRQRPPRLPRPRPRPAQIPRP, 0.028.
In the case of RRIRTRPPRLPRPRPRPIKVPRP, the “shrunken log2 fold change” value amounted to 0.0474.
Regarding RRIRNRPPRLPRPRPRPMYLPRP, the “shrunken log2 fold change” value was -0.251.
Under RRIRNRPPRLPRPRPRPHSAPRP stands -0.0468; under RRIRGRPPRLPRPRPRPNRDPRP, 0.0612.
RRIRKRPPRLPRPRPRPHSVPRP: the “shrunken log2 fold change” value was 0.11.
For RRIRDRPPRLPRPRPRPNLIPRP, the “shrunken log2 fold change” value is -0.15.
As for RRIRMRPPRLPRPRPRPYEIPRP, the “shrunken log2 fold change” value amounted to 0.0237.
For RRIRHRPPRLPRPRPRPPHHPRP, the “shrunken log2 fold change” value is -0.0583.
With RRIRGRPPRLPRPRPRPQLFPRP, the “shrunken log2 fold change” value was 0.838.
Under RRIRRRPPRLPRPRPRPIYLPRP stands -0.205; under RRIRARPPRLPRPRPRPQLGPRP, -0.0732.
The value for RRIRFRPPRLPRPRPRPHPFPRP was -0.105.
The value for RRIRHRPPRLPRPRPRPGWFPRP was 0.0663; that for RRIRMRPPRLPRPRPRPEYKPRP was 0.359.
On to RRIRHRPPRLPRPRPRPPHPPRP, for which the “shrunken log2 fold change” value was determined as 0.15.
Under RRIRARPPRLPRPRPRPLQYPRP stands 0.00717; under RRIRNRPPRLPRPRPRPDEQPRP, -0.0726; under RRIRQRPPRLPRPRPRPNIDPRP, -0.516.
With RRIRERPPRLPRPRPRPSNTPRP, the “shrunken log2 fold change” value was -0.942.
The value for RRIRFRPPRLPRPRPRPITHPRP was -0.49.
Under RRIRERPPRLPRPRPRPAKIPRP stands 0.039.
The value for RRIRSRPPRLPRPRPRPLVSPRP was 0.208.
Turning to RRIRKRPPRLPRPRPRPGGTPRP, the “shrunken log2 fold change” value is 0.504.
The value for RRIRFRPPRLPRPRPRPCRGPRP was -0.106; that for RRIRVRPPRLPRPRPRPLISPRP was -0.0293; that for RRIRARPPRLPRPRPRPWAGPRP was 0.233.
Take RRIRGRPPRLPRPRPRPASFPRP: the “shrunken log2 fold change” value was found to be 0.345.
Under RRIRCRPPRLPRPRPRPLMQPRP stands 0.0849; under RRIRRRPPRLPRPRPRPSRWPRP, 0.08; under RRIRDRPPRLPRPRPRPLNAPRP, -0.0226.
The value for RRIRRRPPRLPRPRPRPIRAPRP was 0.266.
As for RRIRRRPPRLPRPRPRPAVSPRP, the “shrunken log2 fold change” value was -0.136.
The value for RRIRQRPPRLPRPRPRPSKFPRP was -0.246; that for RRIRDRPPRLPRPRPRPVGPPRP was -0.286; that for RRIRNRPPRLPRPRPRPYWFPRP was -0.124.
The value for RRIRIRPPRLPRPRPRPEDRPRP was -0.0106; that for RRIRQRPPRLPRPRPRPGRKPRP was 0.249; that for RRIRLRPPRLPRPRPRPCGYPRP was -0.111.
With RRIRARPPRLPRPRPRPNSIPRP, the “shrunken log2 fold change” value is -0.125.
The value for RRIRLRPPRLPRPRPRPSRVPRP was 0.00872; that for RRIRLRPPRLPRPRPRPLGQPRP was 0.0405; that for RRIRWRPPRLPRPRPRPSMNPRP was 0.0339.
With RRIRVRPPRLPRPRPRPAVWPRP, the “shrunken log2 fold change” value amounted to 0.458.
Turning to RRIRWRPPRLPRPRPRPYSVPRP, the “shrunken log2 fold change” value was -0.55.
The value for RRIRDRPPRLPRPRPRPARDPRP was 0.724; that for RRIRGRPPRLPRPRPRPPWPPRP was 0.871.
The value for RRIRRRPPRLPRPRPRPQVVPRP was 0.0705.
Take RRIRTRPPRLPRPRPRPYQWPRP: the “shrunken log2 fold change” value was -0.216.
The value for RRIRPRPPRLPRPRPRPPVAPRP was 0.366; that for RRIRNRPPRLPRPRPRPQIDPRP was -0.0557.
With RRIRARPPRLPRPRPRPWIHPRP, the “shrunken log2 fold change” value is -0.264.
The value for RRIRFRPPRLPRPRPRPMVGPRP was -0.225; that for RRIRARPPRLPRPRPRPYRRPRP was -0.174; that for RRIRARPPRLPRPRPRPCARPRP was 0.786.
The value for RRIRNRPPRLPRPRPRPKNWPRP was 0.168.
The value for RRIRNRPPRLPRPRPRPCDEPRP was -0.035.
Take RRIRARPPRLPRPRPRPWGTPRP: the “shrunken log2 fold change” value is 0.211.
The value for RRIRPRPPRLPRPRPRPRISPRP was -0.145.
The value for RRIRRRPPRLPRPRPRPIKLPRP was -0.128; that for RRIRYRPPRLPRPRPRPWDLPRP was 0.0112; that for RRIRQRPPRLPRPRPRPIECPRP was -0.0217.
Under RRIRNRPPRLPRPRPRPQEIPRP stands -0.00783.
RRIRGRPPRLPRPRPRPQGRPRP: the “shrunken log2 fold change” value stood at 0.553.
Turning to RRIRDRPPRLPRPRPRPSHTPRP, the “shrunken log2 fold change” value was -0.436.
On to RRIRTRPPRLPRPRPRPALGPRP, for which the “shrunken log2 fold change” value turned out to be 0.898.
Under RRIRHRPPRLPRPRPRPPAQPRP stands 0.633.
The value for RRIRLRPPRLPRPRPRPIGLPRP was 0.00285.
Under RRIRPRPPRLPRPRPRPNFSPRP stands 1.08; under RRIRWRPPRLPRPRPRPYDPPRP, -0.126; under RRIRWRPPRLPRPRPRPHAWPRP, 0.0328.
Regarding RRIRRRPPRLPRPRPRPKGQPRP, the “shrunken log2 fold change” value is 0.176.
For the sequence RRIRHRPPRLPRPRPRPSHVPRP, the “shrunken log2 fold change” value is -0.166.
For RRIRARPPRLPRPRPRPDYEPRP, the “shrunken log2 fold change” value was found to be 0.00147.
Under RRIRNRPPRLPRPRPRPFPDPRP stands -0.00602; under RRIRLRPPRLPRPRPRPRWRPRP, 0.463.
In the case of RRIRVRPPRLPRPRPRPENCPRP, the “shrunken log2 fold change” value is -0.0723.
Under RRIRCRPPRLPRPRPRPNRAPRP stands 0.00805.
Under RRIRRRPPRLPRPRPRPPCLPRP stands 0.426; under RRIRWRPPRLPRPRPRPCAYPRP, -0.129; under RRIRERPPRLPRPRPRPFIVPRP, -0.218.
The value for RRIRHRPPRLPRPRPRPDRGPRP was -0.144.
For RRIRGRPPRLPRPRPRPLTEPRP, the “shrunken log2 fold change” value was determined as 1.22.
The value for RRIRPRPPRLPRPRPRPPQQPRP was 0.345.
Consider RRIRRRPPRLPRPRPRPQTNPRP, for which the “shrunken log2 fold change” value was 0.257.
The value for RRIRDRPPRLPRPRPRPPSSPRP was -0.0759; that for RRIRIRPPRLPRPRPRPMHNPRP was -0.332; that for RRIRERPPRLPRPRPRPNNCPRP was -0.24.
The value for RRIRLRPPRLPRPRPRPRRSPRP was -0.169; that for RRIRTRPPRLPRPRPRPFSCPRP was -0.0158.
Under RRIRQRPPRLPRPRPRPPIWPRP stands 0.113; under RRIRLRPPRLPRPRPRPSFKPRP, -0.572; under RRIRSRPPRLPRPRPRPRWSPRP, 0.122.
For the sequence RRIRVRPPRLPRPRPRPKPEPRP, the “shrunken log2 fold change” value stood at 0.326.
The value for RRIRIRPPRLPRPRPRPHYAPRP was -0.121; that for RRIRCRPPRLPRPRPRPCMYPRP was -0.0898; that for RRIRLRPPRLPRPRPRPHYHPRP was -1.26.
